Earlier results, collected in PMC6691274 (Molecular Medicine Reports, 2019).
Where two headings read alike, the source gives them in different places.

Legend:
[1] = system: dipeptidyl-peptidase-IV (DPP-IV)
[2] = target: T1, GLP-1R (Rattus norvegicus, UniProt P32301); settings: INS-1 rat insulinoma xenograft model and rat MI/R model
T1 sequence (P32301 22-463): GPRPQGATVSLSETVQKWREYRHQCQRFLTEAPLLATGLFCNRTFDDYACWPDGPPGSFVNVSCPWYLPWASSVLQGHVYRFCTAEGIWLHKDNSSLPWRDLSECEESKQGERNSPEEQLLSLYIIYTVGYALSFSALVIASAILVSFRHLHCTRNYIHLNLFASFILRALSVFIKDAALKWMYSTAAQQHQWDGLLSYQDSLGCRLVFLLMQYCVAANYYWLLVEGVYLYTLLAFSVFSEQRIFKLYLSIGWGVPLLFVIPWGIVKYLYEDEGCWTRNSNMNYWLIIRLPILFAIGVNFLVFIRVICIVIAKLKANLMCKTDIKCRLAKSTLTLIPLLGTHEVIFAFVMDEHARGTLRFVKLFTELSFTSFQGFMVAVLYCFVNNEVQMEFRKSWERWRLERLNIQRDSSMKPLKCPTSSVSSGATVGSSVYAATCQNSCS

For “Exendin-4: an analog of GLP-1 with 53% amino acid homology, resistant to DPP-IV”, the “Stability towards DPP-IV” value [1] is listed as “resistant”.
In the case of “GLP-1: 30-amino-acid-long gut hormone secreted from intestinal endocrine L-cells”, the “Stability towards DPP-IV” value ([1]; upon being released into the blood) is listed as “rapidly degraded”.
In the case of “^18F-4-fluorobenzamido-N-ethylamino-maleimide (FBEM)-Cys^40-exendin-4 [^18F-FBEM-Cys^40-exendin-4]”, the “Affinity with GLP-1R” value [2] is listed as “high affinity”.
